In the supplement of paper PMC9112550, “Optimization of the antimicrobial peptide Bac7 by deep mutational scanning” (BMC Biology, 2022):

Tested on: Escherichia coli TOP10
Assay: shrunken log2 fold change of peptide-encoding DNA abundance (4.5 h post-induction vs induction); higher = less antimicrobial activity (less host growth inhibition)
Details: time post-induction: 4.5 h; library: site-saturation at positions 5, 18, 19, 20
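Also: peptides expressed intracellularly from a pBAD plasmid library in pooled LB shake-flask culture, induced with 0.3% L-arabinose, DNA abundance read by NGS, three biological replicates, DESeq2 with apeglm shrinkage.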

| Sequence | shrunken log2 fold change |
| --- | --- |
| RRIRPRPPRLPRPRPRPHFNPRP | -0.433 |
| RRIRPRPPRLPRPRPRPHGDPRP | -0.0431 |
| RRIRPRPPRLPRPRPRPHGFPRP | -0.21 |
| RRIRPRPPRLPRPRPRPHHPPRP | -0.224 |
| RRIRPRPPRLPRPRPRPHITPRP | -0.759 |
| RRIRPRPPRLPRPRPRPHIVPRP | -0.481 |
| RRIRPRPPRLPRPRPRPHKDPRP | -0.339 |
| RRIRPRPPRLPRPRPRPHKQPRP | -0.022 |
| RRIRPRPPRLPRPRPRPHKSPRP | -0.283 |
| RRIRPRPPRLPRPRPRPHLGPRP | 0.088 |
| RRIRPRPPRLPRPRPRPHMPPRP | -0.154 |
| RRIRPRPPRLPRPRPRPHNAPRP | -0.284 |
| RRIRPRPPRLPRPRPRPHNGPRP | -0.0321 |
| RRIRPRPPRLPRPRPRPHPEPRP | 0.203 |
| RRIRPRPPRLPRPRPRPHQNPRP | -0.124 |
| RRIRPRPPRLPRPRPRPHRDPRP | -0.0367 |
| RRIRPRPPRLPRPRPRPHRRPRP | -0.0778 |
| RRIRPRPPRLPRPRPRPHRVPRP | 0.164 |
| RRIRPRPPRLPRPRPRPHSKPRP | -0.14 |
| RRIRPRPPRLPRPRPRPHSPPRP | -0.0589 |
| RRIRPRPPRLPRPRPRPHVYPRP | -0.552 |
| RRIRPRPPRLPRPRPRPHWAPRP | -0.0709 |
| RRIRPRPPRLPRPRPRPHWMPRP | 0.0365 |
| RRIRPRPPRLPRPRPRPHWNPRP | -0.447 |
| RRIRPRPPRLPRPRPRPHWRPRP | 0.0957 |

| Sequence | shrunken log2 fold change |
| --- | --- |
| RRIRPRPPRLPRPRPRPHYSPRP | -0.167 |
| RRIRPRPPRLPRPRPRPIAWPRP | 0.266 |
| RRIRPRPPRLPRPRPRPICNPRP | -0.367 |
| RRIRPRPPRLPRPRPRPIDCPRP | -0.0101 |
| RRIRPRPPRLPRPRPRPIDHPRP | 0.0529 |
| RRIRPRPPRLPRPRPRPIECPRP | -0.206 |
| RRIRPRPPRLPRPRPRPIGFPRP | 0.2 |
| RRIRPRPPRLPRPRPRPIIIPRP | -0.593 |
| RRIRPRPPRLPRPRPRPIIQPRP | -0.402 |
| RRIRPRPPRLPRPRPRPIMAPRP | -0.0956 |
| RRIRPRPPRLPRPRPRPIMYPRP | -0.175 |
| RRIRPRPPRLPRPRPRPINIPRP | -1.15 |
| RRIRPRPPRLPRPRPRPIQAPRP | 0.144 |
| RRIRPRPPRLPRPRPRPIQLPRP | -0.0767 |
| RRIRPRPPRLPRPRPRPIQPPRP | -0.0445 |
| RRIRPRPPRLPRPRPRPIRIPRP | -0.149 |
| RRIRPRPPRLPRPRPRPIRQPRP | -0.0697 |
| RRIRPRPPRLPRPRPRPITYPRP | -0.782 |
| RRIRPRPPRLPRPRPRPIVAPRP | 0.133 |
| RRIRPRPPRLPRPRPRPIVCPRP | -0.228 |
| RRIRPRPPRLPRPRPRPIVGPRP | -0.00131 |
| RRIRPRPPRLPRPRPRPIVRPRP | 0.029 |
| RRIRPRPPRLPRPRPRPKAGPRP | 0.285 |
| RRIRPRPPRLPRPRPRPKCSPRP | -0.197 |
| RRIRPRPPRLPRPRPRPKEFPRP | -0.0187 |

| Sequence | shrunken log2 fold change |
| --- | --- |
| RRIRPRPPRLPRPRPRPKENPRP | -0.102 |
| RRIRPRPPRLPRPRPRPKFMPRP | -0.171 |
| RRIRPRPPRLPRPRPRPKHNPRP | -0.303 |
| RRIRPRPPRLPRPRPRPKKQPRP | -0.15 |
| RRIRPRPPRLPRPRPRPKLNPRP | 0.0891 |
| RRIRPRPPRLPRPRPRPKLYPRP | 0.0311 |
| RRIRPRPPRLPRPRPRPKMSPRP | -0.0151 |
| RRIRPRPPRLPRPRPRPKNYPRP | -0.428 |
| RRIRPRPPRLPRPRPRPKPGPRP | 0.684 |
| RRIRPRPPRLPRPRPRPKPHPRP | 0.294 |
| RRIRPRPPRLPRPRPRPKQGPRP | 0.0197 |
| RRIRPRPPRLPRPRPRPKQNPRP | 0.0525 |
| RRIRPRPPRLPRPRPRPKQQPRP | 0.214 |
| RRIRPRPPRLPRPRPRPKSSPRP | -0.278 |
| RRIRPRPPRLPRPRPRPKSWPRP | 0.258 |
| RRIRPRPPRLPRPRPRPKTCPRP | -0.124 |
| RRIRPRPPRLPRPRPRPKVCPRP | 0.0118 |
| RRIRPRPPRLPRPRPRPKVHPRP | -0.132 |
| RRIRPRPPRLPRPRPRPKYEPRP | -0.203 |
| RRIRPRPPRLPRPRPRPKYLPRP | -0.0768 |
| RRIRPRPPRLPRPRPRPKYTPRP | -0.414 |
| RRIRPRPPRLPRPRPRPLAIPRP | 0.00474 |
| RRIRPRPPRLPRPRPRPLCTPRP | 1.09 |
| RRIRPRPPRLPRPRPRPLDLPRP | -0.102 |
| RRIRPRPPRLPRPRPRPLDSPRP | -0.0664 |

| Sequence | shrunken log2 fold change |
| --- | --- |
| RRIRPRPPRLPRPRPRPLFMPRP | -0.38 |
| RRIRPRPPRLPRPRPRPLGCPRP | 0.376 |
| RRIRPRPPRLPRPRPRPLGKPRP | -0.361 |
| RRIRPRPPRLPRPRPRPLGWPRP | 0.442 |
| RRIRPRPPRLPRPRPRPLHDPRP | -0.034 |
| RRIRPRPPRLPRPRPRPLLEPRP | 0.059 |
| RRIRPRPPRLPRPRPRPLLSPRP | 0.0345 |
| RRIRPRPPRLPRPRPRPLLVPRP | 0.1 |
| RRIRPRPPRLPRPRPRPLMNPRP | -0.47 |
| RRIRPRPPRLPRPRPRPLNGPRP | -0.0765 |
| RRIRPRPPRLPRPRPRPLNRPRP | -0.0518 |
| RRIRPRPPRLPRPRPRPLPPPRP | 0.36 |
| RRIRPRPPRLPRPRPRPLPVPRP | -0.4 |
| RRIRPRPPRLPRPRPRPLQIPRP | -0.161 |
| RRIRPRPPRLPRPRPRPLQVPRP | 0.013 |
| RRIRPRPPRLPRPRPRPLRSPRP | 0.167 |
| RRIRPRPPRLPRPRPRPLSHPRP | -0.27 |
| RRIRPRPPRLPRPRPRPLTEPRP | 0.0389 |
| RRIRPRPPRLPRPRPRPLTFPRP | -0.113 |
| RRIRPRPPRLPRPRPRPLTNPRP | -0.521 |
| RRIRPRPPRLPRPRPRPLTWPRP | 0.0214 |
| RRIRPRPPRLPRPRPRPLVNPRP | -0.549 |
| RRIRPRPPRLPRPRPRPLWHPRP | -0.0751 |
| RRIRPRPPRLPRPRPRPLWKPRP | 0.0546 |
| RRIRPRPPRLPRPRPRPLWMPRP | 0.0937 |

| Sequence | shrunken log2 fold change |
| --- | --- |
| RRIRPRPPRLPRPRPRPLYKPRP | -0.247 |
| RRIRPRPPRLPRPRPRPMCEPRP | -0.0631 |
| RRIRPRPPRLPRPRPRPMCKPRP | -0.274 |
| RRIRPRPPRLPRPRPRPMCQPRP | 0.27 |
| RRIRPRPPRLPRPRPRPMDKPRP | -0.0612 |
| RRIRPRPPRLPRPRPRPMEHPRP | -0.0171 |
| RRIRPRPPRLPRPRPRPMEPPRP | -0.153 |
| RRIRPRPPRLPRPRPRPMFAPRP | -0.0605 |
| RRIRPRPPRLPRPRPRPMGQPRP | 0.0687 |
| RRIRPRPPRLPRPRPRPMHFPRP | 0.015 |
| RRIRPRPPRLPRPRPRPMHIPRP | -0.105 |
| RRIRPRPPRLPRPRPRPMHQPRP | 0.059 |
| RRIRPRPPRLPRPRPRPMHWPRP | 0.335 |
| RRIRPRPPRLPRPRPRPMIHPRP | -0.696 |
| RRIRPRPPRLPRPRPRPMINPRP | -0.179 |
| RRIRPRPPRLPRPRPRPMKGPRP | 0.15 |
| RRIRPRPPRLPRPRPRPMKNPRP | 0.212 |
| RRIRPRPPRLPRPRPRPMLDPRP | 0.071 |
| RRIRPRPPRLPRPRPRPMLYPRP | -0.0392 |
| RRIRPRPPRLPRPRPRPMMFPRP | -0.213 |
| RRIRPRPPRLPRPRPRPMMPPRP | -0.141 |
| RRIRPRPPRLPRPRPRPMNAPRP | -0.158 |
| RRIRPRPPRLPRPRPRPMNKPRP | -0.551 |
| RRIRPRPPRLPRPRPRPMPWPRP | 0.215 |
| RRIRPRPPRLPRPRPRPMQCPRP | 0.00596 |

| Sequence | shrunken log2 fold change |
| --- | --- |
| RRIRPRPPRLPRPRPRPMQDPRP | 0.0218 |
| RRIRPRPPRLPRPRPRPMQIPRP | 0.114 |
| RRIRPRPPRLPRPRPRPMQMPRP | 0.00304 |
| RRIRPRPPRLPRPRPRPMRWPRP | 0.707 |
| RRIRPRPPRLPRPRPRPMRYPRP | 0.0689 |
| RRIRPRPPRLPRPRPRPMSCPRP | -0.043 |
| RRIRPRPPRLPRPRPRPMVTPRP | -0.0789 |
| RRIRPRPPRLPRPRPRPMYCPRP | -0.0366 |
| RRIRPRPPRLPRPRPRPMYRPRP | -0.752 |
| RRIRPRPPRLPRPRPRPNAKPRP | -0.0129 |
| RRIRPRPPRLPRPRPRPNCLPRP | -0.0395 |
| RRIRPRPPRLPRPRPRPNCQPRP | 0.419 |
| RRIRPRPPRLPRPRPRPNCSPRP | -0.132 |
| RRIRPRPPRLPRPRPRPNFGPRP | 0.26 |
| RRIRPRPPRLPRPRPRPNGPPRP | -0.027 |
| RRIRPRPPRLPRPRPRPNHLPRP | -0.601 |
| RRIRPRPPRLPRPRPRPNKNPRP | -0.24 |
| RRIRPRPPRLPRPRPRPNLQPRP | 0.0751 |
| RRIRPRPPRLPRPRPRPNMDPRP | -0.674 |
| RRIRPRPPRLPRPRPRPNMYPRP | -0.746 |
| RRIRPRPPRLPRPRPRPNNEPRP | -0.504 |
| RRIRPRPPRLPRPRPRPNNTPRP | -0.312 |
| RRIRPRPPRLPRPRPRPNPIPRP | -0.237 |
| RRIRPRPPRLPRPRPRPNPNPRP | 0.367 |
| RRIRPRPPRLPRPRPRPNQCPRP | -0.0767 |
